The text below walks through data of US20180237475A1 (BIONIZ, published 2018).

This test addresses T1, human γc-subunit (common γ subunit, CD132) (human, UniProt P31785 23-369).
T1 sequence (looked up): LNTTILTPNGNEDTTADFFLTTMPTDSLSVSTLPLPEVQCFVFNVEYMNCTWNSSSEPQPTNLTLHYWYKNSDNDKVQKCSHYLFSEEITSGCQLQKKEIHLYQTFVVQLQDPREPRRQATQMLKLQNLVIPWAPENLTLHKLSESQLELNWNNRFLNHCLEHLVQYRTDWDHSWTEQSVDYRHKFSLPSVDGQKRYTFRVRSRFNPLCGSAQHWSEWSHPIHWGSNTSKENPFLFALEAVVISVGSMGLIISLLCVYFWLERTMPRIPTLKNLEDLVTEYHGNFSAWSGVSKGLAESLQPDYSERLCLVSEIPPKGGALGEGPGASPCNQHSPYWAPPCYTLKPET
Put plainly: cell-based or functional assay.

Regarding IKEFLQRFIHIVQSIINTS [BNZ132-1], the “IC50 on IL-2/IL-15-induced (0.1 nM each) proliferation of ex vivo human T-lymphocytes” value amounted to 150 nM.
